# Data as given in the supplement of paper PMC10567573.
# B1: RAB40A (parent)
# chain: NWLGRPSKVLSLQDLCCRTIVSCT
# Variants of: B1
# Assay: protein stability index of a GFP-peptide fusion (GPS, HEK-293T) (PSI 1-6); higher = more stable
# Conditions: c terminus: a fixed tail appended
# 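Note: lentivirally expressed fusions sorted by FACS into six bins by GFP to DsRed ratio, PSI derived from sequencing read proportions per bin multiplied by bin number.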
row,Variant,protein stability index
1,C16S,2.31
2,C16W,2.79
3,C16D,2.2
4,C16T,2.06
5,C16K,2.25
6,C16I,2.17
7,C16Q,1.51
8,C16F,2.44
9,C16P,2.02
10,C16N,1.61
11,C16M,1.98
12,C16R,1.75
13,C16L,2.02
14,C16E,1.9
15,C16G,1.44
16,C16V,2.19
17,C16A,2.5
18,C16H,1.58
19,C16Y,1.44
20,L15R,2.51
21,L15P,1.62
22,L15Q,2.42
23,L15W,2.1
24,L15V,1.72

row,Variant,protein stability index
1,L15D,2.02
2,L15I,2.31
3,L15G,1.74
4,L15F,1.45
5,L15Y,2.15
6,L15A,2.15
7,L15K,2.16
8,L15N,2.18
9,L15H,1.99
10,L15S,1.96
11,L15E,2.15
12,L15T,1.92
13,L15M,2.13
14,L15C,1.89
15,L12K,2.15
16,L12Y,3.31
17,L12M,1.95
18,L12H,2.31
19,L12S,1.73
20,L12P,1.48
21,L12T,1.81
22,L12D,1.8
23,L12F,2.75
24,L12G,3.06

row,Variant,protein stability index
1,L12E,1.8
2,L12A,1.38
3,L12R,2.23
4,L12C,1.79
5,L12Q,2.31
6,L12V,2.87
7,L12W,2.25
8,L12I,2.27
9,L12N,1.46
10,Q13I,2.93
11,Q13D,1.61
12,Q13L,2.44
13,Q13G,2.21
14,Q13E,2.41
15,Q13M,2.12
16,Q13S,2.67
17,Q13P,1.68
18,Q13T,2.51
19,Q13N,1.8
20,Q13K,2.86
21,Q13V,2.81
22,Q13W,2.82
23,Q13F,2.75
24,Q13A,2.86

row,Variant,protein stability index
1,Q13H,2.62
2,Q13C,2.42
3,Q13R,3.23
4,Q13Y,2.42
5,D14V,1.72
6,D14T,2.11
7,D14M,1.58
8,D14A,1.99
9,D14L,1.67
10,D14C,1.78
11,D14I,1.48
12,D14R,1.51
13,D14E,2.54
14,D14Q,2.12
15,D14G,2.45
16,D14P,1.97
17,D14F,2.14
18,D14S,2.07
19,D14H,2.13
20,D14K,1.9
21,D14Y,2.04
22,D14W,1.84
23,D14N,2.29
24,S11R,2.2

row,Variant,protein stability index
1,S11E,2.01
2,S11P,2.14
3,S11L,1.86
4,S11V,2.74
5,S11F,1.67
6,S11W,1.77
7,S11H,1.92
8,S11K,2.67
9,S11D,1.9
10,S11N,2.22
11,S11C,1.66
12,S11Q,2.11
13,S11T,2.6
14,S11G,1.54
15,S11Y,2.03
16,S11M,1.97
17,I20C,2.32
18,I20N,1.91
19,I20G,2.47
20,I20F,1.89
21,I20A,1.94
22,I20E,2.04
23,I20D,2.4
24,I20W,2.18

row,Variant,protein stability index
1,I20M,2.83
2,I20K,2.62
3,I20Q,2.26
4,I20S,2.08
5,I20V,2.14
6,I20H,2.48
7,I20L,2.74
8,I20P,2.42
9,I20Y,2.1
10,I20T,1.73
11,I20R,2.54
12,C17P,1.74
13,C17Y,2.22
14,C17L,2.77
15,C17V,2.6
16,C17R,3.23
17,C17K,3.26
18,C17H,2.88
19,C17F,2.53
20,C17W,2.03
21,C17I,2.54
22,C17M,2.54
23,C17T,3.23
24,C17Q,3.09

row,Variant,protein stability index
1,C17S,2.75
2,C17E,3.08
3,C17D,2.79
4,C17G,2.34
5,C17A,2.66
6,C17N,2.95
7,T24N,2.87
8,T24G,2.6
9,T24Y,2.13
10,T24C,2.07
11,T24P,3.02
12,T24Q,3.19
13,T24A,2.5
14,T24L,2.31
15,T24E,2.58
16,T24R,2.89
17,T24K,3.2
18,T24M,2.27
19,T24F,2.63
20,T24V,2.28
21,T24W,2.2
22,T24S,2.62
23,T24H,2.64
